Numbering of substitutions follows the chain as printed. Entries after “also recorded” stand apart in the source; their conditions may differ.
B1: M5: human anti-mesothelin scFv SEQ ID NO: 43; full CAR SEQ ID NO: 67 (protein)
scFv: QVQLVQSGAEVEKPGASVKVSCKASGYTFTDYYMHWVRQAPGQGLEWMGWINPNSGGTNYAQKFQGRVTMTRDTSISTAYMELSRLRSDDTAVYYCASGWDFDYWGQGTLVTVSSGGGGSGGGGSGGGGSGGGGSDIVMTQSPSSLSASVGDRVTITCRASQSIRYYLSWYQQKPGKAPKLLIYTASILQNGVPSRFSGSGSGTDFTLTISSLQPEDFATYYCLQTYTTPDFGPGTKVEIK
B2: M11: human anti-mesothelin scFv SEQ ID NO: 49; full CAR SEQ ID NO: 73 (protein)
scFv: B1 scFv with V5Q, E12K, D31G, K63N, S84R, V138R

What was measured:
[1] = tested on: Ovcar8, SW1990 and Panc0203; experiment: IFNγ production of CART-MSLN (CBA-Flex), endogenous MSLN; type: cell-based, human; conditions: for IFNγ levels compared with the other CARTs: cancer cells endogenously expressing MSLN
Description: Plots from 20 hour flow-based killing assays using titrating Effector to Target (E:T) ratios with effector CART-MSLN cells targeting CSFE labeled K562 (FIG. 3A. non-expressing MSLN controls) and K562-Meso (FIG. 3B, K562 cells transduced to express MSLN). […] For measuring cytokine production of human scFv bearing CART-MSLN, cells were thawed and allowed to recover overnight. In addition to the humanized CART-MSLN, the SS1 CART-MSLN (murine scFv) was used for comparative purposes. CD19-BBz CART was used as a non-targeting control for background CART cell effect. SS1 CART-MSLN was used in all assays to compare assay variation. The T cells were directed towards K562, a chronic myelogenous leukemia cell line (both MSLN+ and MSLN), the MLSN-expressing ovarian cancer cell line Ovcar8, and the pancreatic cancer lines SW1990 and Panc0203. When analyzing MSLN expression by flow cytometry, we detected 10-fold lower expression of MSLN on Ovcar8 compared to MSLN+K562 cells; SW1990 expressed 10-fold less than Ovcar8. […] In addition, PMA/Ionomycin was used to evaluate the potential of T cells to respond to the endogenous immunological signals. The assay tests only an effector:target ratio of 1:1. The assay is run for 24 hours after mixing of the cells, when the media is removed for cytokine analysis using the IFN-γ CBA-Flex kit for human cytokine detection.
Background levels of cytokine produced from CART-MSLN cells after exposure to the control K562 cells not expressing MSLN were analyzed. […] Differences were dealt with by normalizing the specific IFNγ release over the maximum release (PMA/Ionomycin).

[2] = Size exclusion chromatography (oligomerization state of expressed scFvs); type: physicochemical; conditions: purified scFv
Description: Size exclusion chromatography was performed to determine the oligomerization states of the expressed scFvs. 25 μg each was injected onto a TSKGel Super SW3000 4.6 mm×300 mm column (Tosoh Bioscience) heated to 35° C. The scFvs were eluted at 0.3 mL/min in 750 mM arginine, 1 mM EDTA, 20 mM sodium phosphate, 250 mM sodium chloride, pH 7.2; the UV absorbance was monitored at 280 nm.

[3] = target: T1, biotinylated mesothelin ECD (Homo sapiens, UniProt Q13421); experiment: SPR relative epitope binning in comparison to SS1; type: binding; conditions: 50 nM SS1 captured first, then scFv at 100 nM
T1 construct: made in house; host or cells: HEK293F (transient)
T1 sequence (Q13421 with tags, fused parts or gaps): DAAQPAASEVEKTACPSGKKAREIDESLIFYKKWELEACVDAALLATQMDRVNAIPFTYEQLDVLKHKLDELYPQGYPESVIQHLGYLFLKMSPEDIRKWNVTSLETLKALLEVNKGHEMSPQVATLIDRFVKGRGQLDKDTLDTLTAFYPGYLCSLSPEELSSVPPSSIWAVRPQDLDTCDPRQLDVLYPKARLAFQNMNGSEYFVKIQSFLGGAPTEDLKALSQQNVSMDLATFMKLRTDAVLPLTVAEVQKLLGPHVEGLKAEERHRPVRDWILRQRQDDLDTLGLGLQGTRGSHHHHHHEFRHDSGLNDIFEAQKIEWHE
Description: In embodiments, the competition assay is an SPR-based assay. Briefly, the antigen, e.g., human mesothelin, is immobilized on a surface. Through a microflow system, a reference antibody is injected over the antigen layer. Upon binding of the reference antibody to the antigen, an increase in signal, typically expressed in response units (RU) is detected, e.g., reference signal. After a desired time, a test antibody is injected over the antigen layer. If the test antibody binds to a different region or epitope of the antigen, then an additional increase in signal is detected, e.g., a 5% or more, 10% or more, 15% or more, 20% or more, 25% or more, 30% or more, 35%, or more, 40% or more, 45% or more, 50% or more, 55% of more, 60% or more, 65% or more, 70% or more, 75% or more, 80% or more, 85% or more, 90% or more, or 95% or more increase in signal, e.g., RU, as compared to the highest signal detected upon binding of the reference antibody, e.g., the reference signal. If the test antibody binds to the same region or epitope of the antigen, then little or no increase in signal, e.g., RU, will be detected, e.g., less than 20%, less than 15%, less than 10%, less than 5%, less than 4%, less than 3%, less than 2%, or less than 1% increase in signal, e.g., RU, as compared to the highest signal detected upon binding of the reference antibody, e.g., the reference signal. When using this SPR-based competition assay, an antibody is said to compete with the reference antibody when less than 20%, less than 15%, less than 10%, less than 5%, less than 4%, less than 3%, less than 2%, or less than 1% increase in signal, e.g., RU, is detected when compared to the reference signal detected upon binding of the reference antibody to the antigen. An antibody is said to not compete, or compete poorly, with a reference antibody when a 5% or more, 10% or more, 15% or more, 20% or more, 25% or more, 30% or more, 35%, or more, 40% or more, 45% or more, 50% or more, 55% of more, 60% or more, 65% or more, 70% or more, 75% or more, 80% or more, 85% or more, 90% or more, or 95% or more increase in signal, e.g., RU, is detected when compared to the reference signal detected upon binding of the reference antibody to the antigen.
To determine the relative binding epitope of each of the scFvs in comparison to SS1, 50 nM SS1 was captured by biotinylated mesothelin ECD immobilized on a streptavidin sensor chip at a contact time of 180 seconds resulting in a relative density of 70 RU. Purified scFv at 100 nM (M5, M11, M12, M14, M16, M17, M21, or M23) was then immediately injected over the chip to minimize dissociation of the SS1/mesothelin complex. Binding of the secondary scFv was monitored for 270 seconds.

| Molecule | IFNγ response to cancer cells endogenously expressing MSLN ([1]; E:T 1:1, 24 hours) | IFNγ levels compared with the other CARTs [1] | % Monomer (SEC) [2] [%] | relative epitope binning against SS1 on human mesothelin [3] |
| --- | --- | --- | --- | --- |
| B1 | responded | superior IFNγ levels | 82 | bind to a different epitope than SS1; also recorded: bind to a unique epitope |
| B2 | – | superior IFNγ levels | – | bind to a different epitope than SS1; also recorded: bind to a unique epitope |
